From the nanobody polyreactivity screen of Harvey et al. (2022)

test: yeast display, Sf9 membrane polyspecificity reagent, FACS + sequencing; frameworks hold sequencing errors
Summary of the method: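 Nanobodies from a synthetic yeast display library (Saccharomyces cerevisiae BJ5465), induced 36–48 hours with galactose, were stained 1 hour at 4 °C with 10% biotinylated, detergent-solubilized Sf9 membrane reagent, enriched on streptavidin microbeads, then FACS-sorted. Anti-HA (expression) and streptavidin (reagent binding) fluorescence set low and high (top ~1%) gates. Polyreactivity labels come from the gate of origin. Genes were colony-PCR amplified, MiSeq 2 × 250 sequenced and filtered by CDR length.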

Row | Sequence | polyreactivity (PSR sort gate)
1 | QVQHVESGGGLVQAGGSLRLSCAASGRTFYLNAMGWSRQAPGKARELVATISYTGDTTYYADSVKGRFTISRDNAKNTVYLQMNSLKPEDTAVYYCAKDYSLTQQRHAAYIVGSVDYWGQGTQVTVSS | high polyreactivity
2 | QVQLVESGGGLVQAGGSLRLSCAASGFTFSSYAMGWYRQAPGKERELVAAITGGGSRTYYADSVKGRFTISRDNAKNTVYLQMYSLKPEDTAVYYCAKGLSTGRAYRGYDYWGQGTQVTVSS | high polyreactivity
3 | QVQLVESGGGLVQAGGSRRLSCAASGSIFPVYAMGWYRQAPGKERELVASISTGGSTYYADSVKGRFTISRDNAKNTVYFQLNSLKPEDTAVYYCAATGWAYGYGYGYWGQGTQVTESS | low polyreactivity
4 | QVQLVESGGGLVQAGGSLRISCAASGSIFLIFAMGWYRQSPGKERELVAAITQRGGSTYYADSVKGRFTISRDNAKNTVYFQMDSLKPEDTAVYYCNARRYVLRYNRFYYWGQGTQVTVSS | high polyreactivity
5 | QVQHVESGGGLVQAGGSLRLSCAASGFTFYSYVMGWYRQAPGKERELVAAITRGGSTYYADSVKGRFTISRDNAKNTVYLQMTSLKPEDTAVYYCAKRPSYGYNYWGHGTQVTVSS | low polyreactivity
6 | QVQLVESGGGLVQAGGSLRLICAASGRIFFHYAMGWYRQAPGKVRELVAVISSTGGITNYADSVKGRFTISRDNAKNTVYLQMNSLKPEDTAVYYCNTVPRPFERYGYWGQGTQVTVSS | low polyreactivity
7 | QFQLVESGGGLVQAGGSLRLSCAASGRIFDTYVMRWYRQAPGKERDLVAAISGSGGSTYYAYSVKGRFTISRDNAKNTVYLQMNSLKPEDTEVYYCAAARRYYAYRYDYWGQGTQVTVSS | high polyreactivity
8 | QVQLVESGGGLVQAGGSLRLSCAASGRIFGTNAMGWYRQAPGKERELVATITRGGGNTYYADSVKGRFTISRDNAKNTVYLQMNSLKPEDTAVYYCAAKFNRFAWYSHYDYWGQGTLVTVSS | low polyreactivity
9 | QVQLVKSGGGLVQAGGSLRLSCAASVRTILYNAIGWYRQAPGKESELVAAITGGGSTYYADSVKGRFTISRDNAKNTVYLQMNSLKPEDTAVYYCAADLSVVRYDYWGQGTQVTVSS | low polyreactivity
10 | QVQLVESGGGLVQAGGSLRLSCAASGSTSQINAMGWYRQAPGKERELVAAITWSTGTTYYADSVKGRFTISRDNAKNTVYLQMTSLKPEDTAVYYCAAERAILSSDKQSLWRFDYWGQGTQVTVSS | low polyreactivity
11 | QVQLVESGGGLVQAGGSLRLSCAASGRTFGLNAMGWYRQAPGKEMELVAAITSGGSTYYADSVKGRFTISRDNAKNTVYLQMNSLKPEDTAVYYCAVTYNGDSSWPGDYWGQGTQVTVSS | low polyreactivity
12 | QVQLVESGGGLVQAGGSLRLSCAASGITFIYNAMGWYRQAPGKERELVATINDGGSTNYADSVKGRFTISRDNAKNTVYLQMNSLKPEDTAVYYCNADGGPYGAVGKSDYWGQGTQVTVSS | low polyreactivity
13 | QVQLLESGGGIVQAGGSLRLSCAASGSTYVIYDMVWYRQAPGKERELVAVITIIGGSTYYADSVKGRFTISRDNAKNTVYLQMISLKPEDTAVYYCNANVIQDYPNYDYWGQGTLVTVSS | low polyreactivity
14 | QLQLVESGGGLVQAGGSLRRSCAPSGRILWVNAMGWSRQAPGKERELVAAISLSGGRTYYADSVKGRFTISRDNAKNTVYLQMNSLKPEDTAVYYCAARTVNYYYTTGDYWGQGTQVTVSS | low polyreactivity
15 | HVQLEESGGGLVQAGGSLRLSCAASGITFYKYVMGSYRQAPGKERELVAAITYSGGSRYYADSVKGRFTISRDNAKNTVYLPMNSLKPEDSAVYYWNAYYYWYFPYTYDYWGQGTQVTVSS | high polyreactivity
16 | QVQLVESGGGLVQAGGSLRLSCAASGIIFGDYAMGWYRQAPGKEMELVAAITWSGGSTYYADSVKGRFTISRDNAKNTVYLQMNSLKPEDTAFYYCNADDDGRVSSTIVEYWGQGTQVTVSS | low polyreactivity
17 | QFQLVESGGGLVQAGGSLRLSCAASGLIFAYNAKGWSRQATGKERELVAAITGGGDGTYYADSVKGRFTISRDNAKYTVYLQMNSLKPEDTAVYYCAADYKYVGSEYGYWGQGTQVTVSS | low polyreactivity
18 | QVQLVESGGGLVQAGGSLRLSCAASGNTFRINAMGWYRQAPGKERELVAAISRSTGRTYYADSVKGRFTISRDNAKNTVYLQMNSLKPEDTAVYYCAAGYTGQEHDYWGLGTQVTVSS | high polyreactivity
19 | QVQLVESGGGLVQAGGSLRLSCAASAFIFRYYAIGGYRQAPGNERELVAAIARSGGSTYYADSVKGRFTISRDNAKNTVYLQMNSLKPEVTAVYYCNRGDVIGRQYDSAYGYWGQGTQVTVSS | high polyreactivity
20 | QVQLVESGGGLDQAGGSLRLSCAASGLTFWYYAMGWYRQAPGKERELVVAISWSGGRTSYADSVKGRFTISRDNAKNTVYLQMNSLKPEDTAVYYCAADKDFRTGEYEYDYWGQGTQVTVSS | high polyreactivity
21 | QVQLVESGGGLVQAGGSLRLSCAASGSIFRKNAMGWYREAPGKERELVATISGGGSTTYADSVKGRFTISRDNAKNTLYLQMNSLKPEDTAVYYCAARSTWFQIRYGYWGQGNQVTVSS | high polyreactivity
